# Measured values published in the nanobody polyreactivity screen of Harvey et al. (2022).
# Test: yeast display, Sf9 membrane polyspecificity reagent, FACS + sequencing; frameworks hold sequencing errors
# Procedure, shortened: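 Using colony PCR, genes from sorted yeast display clones were amplified, then sequenced on MiSeq at 2 × 250 and filtered by CDR length. The clones had been stained with 10% biotinylated, detergent-solubilized Sf9 membrane reagent for 1 hour at 4 °C and sorted by FACS into low and high (top ~1%) gates on anti-HA and streptavidin fluorescence. Polyreactivity labels come from the gate of origin.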
row,Sequence,polyreactivity (PSR sort gate)
1,QVQLVESGGGLVQAGGSLRLSCAPSGIIFQFYAMGWYRQAPGKERELVAAISRSGGITHYADSVKGRFTISRDNAKNTVYLQMNSLKPEDTAVYYCAAVRQAYPRLDYWGQGTQVTVSS,high polyreactivity
2,QVQLVDSGGGIVQAGGSLRLSCAASGSTFVANAMGWYRQAPGKECEFVAAISRSGVRTYYADSVKGRFTISRDNAKNTVYLQMNSLKPEDTAVYYCAADGYWWTYSRYDYWGQGTQVTVSS,low polyreactivity
3,QVQLVESGGGLVQAGGSLRLSCAASGSTFTSNAMGWYRQAPGKERELVAAISSGGSTSYADSVKGRFSISRDNAKNTVYLQMNSLKPEDTAVYYCAVGVLYAGYFYRYRYYYWGQGTQVTVSS,high polyreactivity
4,QVLLVESGGRLVQAGGSLRLSSAASGRTLNINAMGWYRQAPGKERELVAVISFNGGGTYYADSVKGRFTISRDNGKNTVYLQMNSLKPEDTAVYYCNAVRDRYASDYWGQGTQVTVTS,low polyreactivity
5,QVQLVESGAGLVQAGGSLRLSCAASGLTFFYYAMGWYRQAPGKERELVAAIDNDGGTYYADSVKGRFTISRDNAKNTVYLLMNSLKPEDTAVYYCNADYQTVDDPYGYDYWGQGTQVTVSS,low polyreactivity
6,QVQLVESGGGLVQAGGSLRLSCAASGIIFYPYAMGWYRQAPGKERELVAGISWSGGRTYYADSVKGRFTISRDNAKNTVYLQMNSLKPEDTAVYYCAARYRQRAYDYWGQGTQVTVSS,high polyreactivity
7,QVQLVESGGGLVQAGGSLRLSCAASGRTLGYYAMGWYRQAPGKERELVAAITSRTGTTYYADSVKGRFTISRDNAKNTVFLQMNSLKPEDTAVYYCNAAYYSTVLGWYLEYDYWGQGTQVTVSS,high polyreactivity
8,QVQLVESGGGLVQAGGSLRLSCAASGSIFYLYAMGWYRQAPGKERELVAAISWSTSGTYYADSVKGRFTISRDNAKNTVYLQMNSLKPEDTAVYYCAADVYSPWWYDYWGQGTQVTVSS,high polyreactivity
9,QVQLVESGGCLVQAGGSLRLSCAASGFIFRWYAMGWYRQAPGKERELVAAISLGGSTNYADSVKGRFTISRDNAKNTVYLQMNSLKPEDTAVYYCNARYVSYSGRYVIGQYVKYDYWGKGTQVTVSS,high polyreactivity
10,QVQLVESGGGLVQAGGSLRLSCAASGNIFFVYDMGWYRQSPGKERELVAAISWSGGSTYADSVKGRFTISRDNAKNTVYLQMNSLKPEDTAVYYCNAQGYRYRIGYDYWGQGTQVTVSS,low polyreactivity
11,QVQLVETGGGLVQAGGSLRISCAASGFTFSSYVMGWYRQAPGKERELVAAITRGGGSTYYADSVKGRFTISRDNAKNTVYLQMNRLKPEDTAVYYCAARGWRYSYTSVLFDYCGQGTQVTVSS,high polyreactivity
12,QVQLVESGGGLVQAGGSLRLSCAASGFTFNFYAMGWYRQAPGKESELVASITSSGARTYYADSVKGRFTISSDNPKNTVYLQMNSLKPEDTAVYYCAARVYRYSASRAYDYWGQGTQVTVSS,high polyreactivity
13,QVQLVESGGGLVQAGGSLRLSCAASGRTFGVYAMGWYRQAPGKERELVAAIRWSGGGTYYADSVKGRFTISPDNAKNTVYLQMNSLKPEDTAVYYCAATFQNSPYTRYTDMYYWGQGTQVTVSS,low polyreactivity
14,QVQLVESGGCLVQAGGSLRLSCAASGRIYIGYAMGWYRQAPGKERELVAAITTGGRTSYAVSVKGRFTISRDNAKNTVYLQMNSLKPVDTAVYYCAKRKSYNFPTRRPYYRRYYYWGQGTQVTVSS,high polyreactivity
15,QVQLVESGGGLVQAGGSLRLSCDASGRIFYANAMGWYRQAPGKERELVAGISSGGITNYADSVKGRFTISRDNAKNTVYLQMNSLKPEDTAVYYCAARRWSTGGYGQFDYWGQGTQVTVSS,low polyreactivity
16,QVQLVESGRGLVQAGGSLRLSCAASGSTFVRNAMGWYRQAPGKERELDAAITSSGGSTYYADSVKGRFTISRDYAKNTVYVQMNRLKPEDTAVYYCGKRRYYRYDYWGLGTQVTVSS,low polyreactivity
17,QFQLVESGGGLVQAGGSLRLSCAASGFTFYYYTMGWYRQAPGKERELVAAITWRGGSTNYADSVKGRFTISRDNAKNTVYLQMNSLKPEDTAVYYCAAVTYWFWPGMDYWGQGTQVTVSS,low polyreactivity
18,QVQRVESGGGLVPAGGSLRLSCAASGSIFYYNAMGWYRQAPGKERELVAAISWGDGITYYADSVKGRFTISRDNAKKTVYVQMNSLKPEDTAVYYCAVDYYYLPYEYWGQGTQVTVSS,high polyreactivity
19,QLQLVESGGGLVQAGGSLRLSCAPSGSTFESYAMGWYRQSPGKERELVAAISSSGGSTYYADSVKGRFTISRENAMNTVYLEMYRLIPEDTAVYYCAAPTFSRYYYWGQGTQVTVSS,high polyreactivity
20,QVQLVESGGGLVQAGGSLRLSCAASGRIFGKYAMGWYRQAPGKERELVAAISSSGRTNYADSVKGRFTISRDNAKNTVYLQMNSLKPEDTAVYYCAVRVLIHTNTRRLDYWGQGTQVTVSS,high polyreactivity
21,QVQLVESCGGLVQAGGSLRLSCAASGFIFRSYAMGWYRKAHGKERELVAAISRSGGSTYYADSVKGRFTISRDNAKNTVYLQMNSLKPEDTAVYYCATDGGRSTARGFGHWGQGTQVTVSS,high polyreactivity

row,Sequence,polyreactivity (PSR sort gate)
1,QVQLVESGGGLVQAGGRLRLSCPASGRIFSLYAMGWYRQAPGKERELVAVISSTGVSSHYADSVKGRFTISRDNAKYTVYLLMNSLNPEDTAVYYCNARWSFPRWGYEYGYWGQGTQVTVSS,high polyreactivity
2,QVQLVESGGGLVQAGGSLRLSCAASGSIFGYYVMGWYRQAPGKERELVAAITKSGGSTYYADSVKGRFTISRDNAKNTVYLQKNSLKPEDTAVYYCAKRFYSTGYGRFDYWGQGTQVTVSS,high polyreactivity
3,QVQLVESGGGLVQAGGSLRLSCAASGRIFANYAMGWYRQAPGKERELVAAIYWSDDDTYYADSVKGRFTISRDNAKNTVYFQMNRLIPEDTAVYYCAADGRYGWYYGVYNGEDYWGQGTQVTVSS,high polyreactivity
4,QVQLVESGGGLVQAGGSLRLSCAASGSTFWANAMGWYRPAPGKERELVAAISRNGGSTYYADSVKGRFTISRDNAKNTVYLQMNSLKPEDTAVYYCAAKKYYYRRQLDYWGQGTQVTVSS,high polyreactivity
5,QVQLVESGGGLVQAGGSLRLSCAASGLIFAGYAMGWYRQAPGKERELVAAITWRGGRTYADSVKGRFTISRDNAKNTVYLQMNSLKPEDTAVYYCAVRRWGTSFVEDDYWGQGTQVTVSS,low polyreactivity
6,QVQLVESGGGLVQAGGSLRLSCAASGLTFVVYAMGWYRQAPGKERELVASITSSGGRTYYADSVKGRFTISRDNAKNTVYLQMNSLKPEDTAVYYCNKYTWWLGSVDYWGQGTQVTVSS,high polyreactivity
7,QVQLVESGGGLVQAGGSLRLSCAASGSIFDVNAMGWYRQAPGKERELVASIDNSGTTNYADSVKGRFTISRDNAKNTVYLHMNSLKPEDTAVYYCAKDASLEYSRWGGDYWGQGTQVTVSS,low polyreactivity
8,QVQLVESGGGLVQAGCSLRLSWAASGFTFAYYAMGWSRQAPGKERDLVASITSSGGSTYYADSVKGRFTISRDNAKNTVYLQMNSLKPEDTAVYYCNKAYRGVYYGYEYWGQGTQVTVSS,high polyreactivity
9,QDHLVESGVGLVQAGGSLRLSCAASGFAFWTYTMGWYRQAPGKERELVATITRGGRTKYADSVKGRFTISRDNAKNTVYLQMNSLKPEDTAVYYCAAARRRTGVRMDYWGLGTQVTVSS,high polyreactivity
10,QVQLVESGGGLVQAGGSLRLSCAASGRIFKYYSMGWYRQAPGKERELVAAITRGGSTNYADSVKGRFTISRDNAKNTFYLQMKSLKTEDTEVYYCAVDTVRNHLMDYWGQGNQVTVSS,low polyreactivity
11,QVQLVESGGGLVQAGGSLRLSCAASGSSFISNAKGWYRQAPGKERELVAAINWTTGRTRYADSVQGRFTISRDNAKNSVYLQMNSLKAEDTAVYYCAKYSRKWYGAYYFWGQGTQVNVSS,high polyreactivity
12,QDQLVESGGGLVQAGGSLRLSCAPSGRIFTTYGMGWYSQAPGKERELVAAISRSGGSTYYADSVKGRFTISRDNAKNTVYLQMNSLKPEDTAVYYCAAVPTSNSFRSSFYYWGQGTQVTVSS,high polyreactivity
13,QVQLVESGGGLVQAGGSLRLSCAASGRIFPWNAMGWYRQAPGKERDLVAAISFSAGRTYYADSVKGRFTISRDNAKNTVYLQMNSLKPEDTAVYYCNARIGSRWVWTGIIGYEYWGQGTQVTVSS,low polyreactivity
14,QVQLVESGGGLVQAGGSLRLSCAASGSTFTIYVIGWYRTAPGKERELVAAINGGGRTNYADSVKGRFTISRDNAKNTVYLQMNSLKPEDTAVYYCAADGLSNVRQMDYWGQGTQVTVSS,low polyreactivity
15,QVQLVESGGGLVQAGGSLRLSCAASGSIFTPYAMGWYRQEPGKERELVAAISRSGGSTYYADSVKGRFTISRDNAKNTVYLQMNSLKPEDTAVYYCAVVVYDIYGYESDYWGQGTQVTVSS,low polyreactivity
16,QVQLVESGGGLVQAGGSLRLSCAASGSIFLVNAMGWYRQAPGKERELVAAITWIGGSTYYADSVKGRFTISRDNAKNTVYLQMNSLKPEDTAVYYCAAYGKRLGGGGYYWGQGTQVTVSS,high polyreactivity
17,QVQLVESGGGLVQAGGSLRLSCAASGSIFHWYAMGWYRQAPGKERELVAAITWSGDTTYYADSVKGRFTISRDNAKNTVYLQMNSLKPEDTAVYYCAVERDDQDYDYWGQGTQVTVSS,low polyreactivity
18,QVQLVESGGGLVQAGGSLRLSCAASGRTVGGNAMGWYRQAPGKERELVAAINRSGGTTYYADSVKGRFTISRDNAKNTVYLQMNSLKPEDTAVYYCAARRTVSATRMGYWGQGTQVTVSS,high polyreactivity
19,QDQLVESGGGLVQAGGRLRLSCAASGSIFLKYSMGWYRQAPGKVRELVAVISQSGGRTYYADSVKGRFTISRDNAKNTVYLQMNILKPEETAVYYCNVDISWLRRKFDYWGQGTQVTVSS,low polyreactivity
20,QVQLVESGGRLVQAGGSLRLSCAASGLIIDYYTMGWYRQAPGKERELVAAINKSGGSTYADSVKGRFTISRDNAKNTVYLQMNCLKPEDSAVYYCAAEVDYSYWPEYSRKYYYWGEGTQVTVSS,low polyreactivity
